The source of these data is publication PMC4695023, “Pancreatic adenocarcinoma upregulated factor serves as adjuvant by activating dendritic cells through stimulation of TLR4” (Oncotarget, 2015).

The target of assay [1] is T1, Toll-like receptor 4 (TLR4), from DC lysate (mouse (endogenous in bone …, UniProt Q9QUK6 26-835)).
T1 construct: TLR4, endogenous in dendritic cells; captured from DC lysate with a TLR4/CD284 antibody on a Protein A sensor; Other lysate proteins (e.g. MD-2) may have been captured along with TLR4 (surmised); also called CD284; source: endogenous, DC lysate, captured on the sensor by TLR4/CD284 antibody (IMGENEX)
T1 sequence (looked up): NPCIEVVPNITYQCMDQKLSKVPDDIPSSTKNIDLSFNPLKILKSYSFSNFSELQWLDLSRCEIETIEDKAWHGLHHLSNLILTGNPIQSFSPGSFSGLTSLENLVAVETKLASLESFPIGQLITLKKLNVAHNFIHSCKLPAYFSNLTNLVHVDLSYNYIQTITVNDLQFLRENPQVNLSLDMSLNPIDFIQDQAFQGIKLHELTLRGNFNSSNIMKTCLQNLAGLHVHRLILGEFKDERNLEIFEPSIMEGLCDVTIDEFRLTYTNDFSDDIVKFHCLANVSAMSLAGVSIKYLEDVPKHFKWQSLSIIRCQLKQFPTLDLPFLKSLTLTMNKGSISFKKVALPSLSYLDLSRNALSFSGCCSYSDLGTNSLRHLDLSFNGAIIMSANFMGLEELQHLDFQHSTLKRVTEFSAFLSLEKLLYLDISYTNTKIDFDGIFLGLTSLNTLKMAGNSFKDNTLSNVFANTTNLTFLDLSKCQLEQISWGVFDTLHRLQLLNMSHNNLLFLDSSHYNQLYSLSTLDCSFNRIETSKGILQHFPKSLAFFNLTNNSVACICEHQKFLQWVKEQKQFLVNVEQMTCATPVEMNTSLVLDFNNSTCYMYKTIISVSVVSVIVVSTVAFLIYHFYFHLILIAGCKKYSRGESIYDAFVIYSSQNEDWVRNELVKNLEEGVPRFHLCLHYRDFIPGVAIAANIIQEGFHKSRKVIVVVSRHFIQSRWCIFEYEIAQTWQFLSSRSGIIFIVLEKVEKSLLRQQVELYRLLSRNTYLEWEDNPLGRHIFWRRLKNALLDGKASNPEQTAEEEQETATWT
In words: BLI; BLItz system; Protein A sensor loaded with TLR2 or TLR4 antibody (0.1 mg/mL), then DC lysate (0.3 mg/mL, 150 sec); association with purified PAUF or BSA (0.3 mg/mL) for 150 sec, dissociation in PBS for 150 sec; KD from BLItz pro software as a non-advanced kinetics experiment. The note with it: one partner purified.

The target in assay [2] is T2, Toll-like receptor 2 (TLR2), from DC lysate (mouse (endogenous in bone …, UniProt Q9QUN7 25-784)).
T2 construct: TLR2, endogenous in dendritic cells; captured from DC lysate with an anti-mouse CD282 (TLR2) antibody on a Protein A sensor; Other lysate proteins may have been captured along with TLR2; also called CD282; source: endogenous, DC lysate, captured on the sensor by anti-mouse CD282 (TLR2) antibody
T2 sequence (Q9QUN7 25-784): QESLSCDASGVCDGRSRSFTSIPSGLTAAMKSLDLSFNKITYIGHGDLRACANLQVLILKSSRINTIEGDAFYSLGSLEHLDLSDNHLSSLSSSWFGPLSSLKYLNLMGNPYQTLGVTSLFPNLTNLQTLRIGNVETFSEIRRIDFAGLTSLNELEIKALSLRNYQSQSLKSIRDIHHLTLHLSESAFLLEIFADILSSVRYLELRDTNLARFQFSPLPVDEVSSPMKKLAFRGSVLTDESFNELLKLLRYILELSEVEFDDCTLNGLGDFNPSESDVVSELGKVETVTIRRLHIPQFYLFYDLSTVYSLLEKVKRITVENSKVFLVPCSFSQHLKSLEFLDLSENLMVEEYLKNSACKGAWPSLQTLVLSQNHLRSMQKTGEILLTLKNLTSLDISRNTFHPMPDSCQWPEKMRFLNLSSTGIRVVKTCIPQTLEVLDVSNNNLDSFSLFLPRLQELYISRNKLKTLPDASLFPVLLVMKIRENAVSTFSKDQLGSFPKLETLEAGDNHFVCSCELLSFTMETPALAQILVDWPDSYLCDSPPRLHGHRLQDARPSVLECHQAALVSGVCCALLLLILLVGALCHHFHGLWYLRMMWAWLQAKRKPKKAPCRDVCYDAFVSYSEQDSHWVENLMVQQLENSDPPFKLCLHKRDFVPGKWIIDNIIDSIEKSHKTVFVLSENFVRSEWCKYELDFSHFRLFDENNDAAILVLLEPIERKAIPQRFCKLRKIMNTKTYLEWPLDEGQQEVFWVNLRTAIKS
The description is as above. The note with it: one partner purified.

B1: Pancreatic adenocarcinoma upregulated factor (PAUF), recombinant, Fc removed (ligand, human, UniProt Q96DA0 17-172, looked up)
chain: GKMYGPGGGKYFSTTEDYDHEITGLRVSVGLLLVKSVQVKLGDSWDVKLGALGGNTQEVTLQPGEYITKVFVAFQAFLRGMVMYTSKDRYFYFGKLDGQISSAYPSQEGQVLVGIYGQYQLLGIKSIGFEWNYPLEEPTTEPPVNLTYSANSPVGR
notes: As a secreted protein it should lack its signal peptide (surmised); also called purified PAUF; PAUF protein; source: CHO/dhFr- cells, transfected with pcDNA3.1(+)-PAUF-Fc; secreted PAUF-Fc purified using Protein A resin, then Fc removed
In the case of B1, the Kd came to 145 nM in assay [1] and 10.6 nM in assay [2].

In general, Kd refers to the equilibrium constant for the complex coming apart. A higher Kd goes with a looser complex.
